Experimental data reported in patent US20240018502A1.

Target: plasma purified human complement protein C3 (human) (UniProt P01024)
Test: cell-based or functional assay

plasma purified human complement protein C3 (human), sequence (P01024 23-667, chain 1 of 2): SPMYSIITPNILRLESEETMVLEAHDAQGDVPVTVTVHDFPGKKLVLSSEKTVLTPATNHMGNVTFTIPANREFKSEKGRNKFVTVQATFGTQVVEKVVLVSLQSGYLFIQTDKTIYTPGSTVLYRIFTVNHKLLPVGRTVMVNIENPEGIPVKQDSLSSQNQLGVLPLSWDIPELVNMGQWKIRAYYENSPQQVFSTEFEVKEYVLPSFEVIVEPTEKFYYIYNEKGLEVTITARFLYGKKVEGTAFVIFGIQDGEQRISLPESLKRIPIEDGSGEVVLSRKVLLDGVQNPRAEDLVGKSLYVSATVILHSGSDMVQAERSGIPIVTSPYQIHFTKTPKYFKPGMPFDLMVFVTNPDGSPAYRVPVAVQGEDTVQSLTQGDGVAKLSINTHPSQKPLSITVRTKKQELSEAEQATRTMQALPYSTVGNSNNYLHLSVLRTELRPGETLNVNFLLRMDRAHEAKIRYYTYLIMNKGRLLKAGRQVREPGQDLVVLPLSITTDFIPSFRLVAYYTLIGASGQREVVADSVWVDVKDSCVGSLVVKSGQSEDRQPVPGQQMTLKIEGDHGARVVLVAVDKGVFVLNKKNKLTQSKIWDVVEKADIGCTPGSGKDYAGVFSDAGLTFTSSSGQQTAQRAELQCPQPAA
plasma purified human complement protein C3 (human), sequence (P01024 672-1663, chain 2 of 2): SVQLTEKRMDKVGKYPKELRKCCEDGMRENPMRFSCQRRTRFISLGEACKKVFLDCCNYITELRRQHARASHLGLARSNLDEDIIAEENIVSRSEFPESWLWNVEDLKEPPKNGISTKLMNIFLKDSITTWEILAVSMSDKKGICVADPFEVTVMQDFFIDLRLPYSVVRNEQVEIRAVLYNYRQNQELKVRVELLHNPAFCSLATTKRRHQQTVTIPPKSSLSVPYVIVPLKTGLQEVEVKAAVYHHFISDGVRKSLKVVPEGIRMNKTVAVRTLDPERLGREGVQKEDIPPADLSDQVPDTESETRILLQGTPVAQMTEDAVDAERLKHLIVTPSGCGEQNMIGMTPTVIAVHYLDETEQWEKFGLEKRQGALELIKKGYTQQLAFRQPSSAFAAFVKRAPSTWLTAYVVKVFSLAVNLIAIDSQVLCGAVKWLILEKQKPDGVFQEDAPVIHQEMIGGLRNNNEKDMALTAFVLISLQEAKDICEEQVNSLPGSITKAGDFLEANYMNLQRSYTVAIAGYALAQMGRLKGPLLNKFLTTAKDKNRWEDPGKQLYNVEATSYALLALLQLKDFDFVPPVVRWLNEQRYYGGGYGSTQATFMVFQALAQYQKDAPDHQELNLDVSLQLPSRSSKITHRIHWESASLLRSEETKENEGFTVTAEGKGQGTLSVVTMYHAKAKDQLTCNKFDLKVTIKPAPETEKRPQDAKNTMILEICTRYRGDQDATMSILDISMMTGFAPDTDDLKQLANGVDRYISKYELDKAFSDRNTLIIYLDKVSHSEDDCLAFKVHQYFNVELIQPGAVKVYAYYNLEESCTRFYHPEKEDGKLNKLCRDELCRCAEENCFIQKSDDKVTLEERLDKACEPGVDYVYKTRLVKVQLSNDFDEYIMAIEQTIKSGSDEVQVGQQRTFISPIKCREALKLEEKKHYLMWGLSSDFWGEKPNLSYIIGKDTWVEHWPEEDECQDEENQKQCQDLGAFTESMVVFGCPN

| Binder | EC50 of hC3 cleavage |
| --- | --- |
| MTSP-1 F97E/F99L/C122S/D217I/K224N (enzyme) VVGGTDADEGEWPWQVSLHALGQGHICGASLISPNWLVSAAHCYIDDRGFRYSDPTQWTAFLGLHDQSQRSAPGVQERRLKRIISHPFFNDETLDYDIALLELEKPAEYSSMVRPISLPDASHVFPAGKAIWVTGWGHTQYGGTGALILQKGEIRVINQTTCENLLPQQITPRMMCVGFLSGGVDSCQGDSGGPLSSVEADGRIFQAGVVSWGIGCAQRNNPGVYTRLPLFRDWIKENTGV | 6.33 nM |
| MTSP-1 C122S/G193A (enzyme) VVGGTDADEGEWPWQVSLHALGQGHICGASLISPNWLVSAAHCYIDDRGFRYSDPTQWTAFLGLHDQSQRSAPGVQERRLKRIISHPFFNDFTFDYDIALLELEKPAEYSSMVRPISLPDASHVFPAGKAIWVTGWGHTQYGGTGALILQKGEIRVINQTTCENLLPQQITPRMMCVGFLSGGVDSCQADSGGPLSSVEADGRIFQAGVVSWGDGCAQRNKPGVYTRLPLFRDWIKENTGV | 44.7 nM |
| MTSP-1 I41G/F97I/F99L/C122S/G151L/Q175M/Q192S/D217V (enzyme) VVGGTDADEGEWPWQVSLHALGQGHGCGASLISPNWLVSAAHCYIDDRGFRYSDPTQWTAFLGLHDQSQRSAPGVQERRLKRIISHPFFNDITLDYDIALLELEKPAEYSSMVRPISLPDASHVFPAGKAIWVTGWGHTQYGGTLALILQKGEIRVINQTTCENLLPQMITPRMMCVGFLSGGVDSCSGDSGGPLSSVEADGRIFQAGVVSWGVGCAQRNKPGVYTRLPLFRDWIKENTGV | 2.84 nM |

Other lines, results leading:

| EC50 of hC3 cleavage | Binder |
| --- | --- |
| 12.1 nM | MTSP-1 I41T/F97W/F99L/C122S/G151N/Q175M/Q192G/D217L (enzyme) VVGGTDADEGEWPWQVSLHALGQGHTCGASLISPNWLVSAAHCYIDDRGFRYSDPTQWTAFLGLHDQSQRSAPGVQERRLKRIISHPFFNDWTLDYDIALLELEKPAEYSSMVRPISLPDASHVFPAGKAIWVTGWGHTQYGGTNALILQKGEIRVINQTTCENLLPQMITPRMMCVGFLSGGVDSCGGDSGGPLSSVEADGRIFQAGVVSWGLGCAQRNKPGVYTRLPLFRDWIKENTGV |
| 9.74 nM | MTSP-1 I41G/F97V/F99L/C122S/G151Q/Q175M/Q192A/D217L (enzyme) VVGGTDADEGEWPWQVSLHALGQGHGCGASLISPNWLVSAAHCYIDDRGFRYSDPTQWTAFLGLHDQSQRSAPGVQERRLKRIISHPFFNDVTLDYDIALLELEKPAEYSSMVRPISLPDASHVFPAGKAIWVTGWGHTQYGGTQALILQKGEIRVINQTTCENLLPQMITPRMMCVGFLSGGVDSCAGDSGGPLSSVEADGRIFQAGVVSWGLGCAQRNKPGVYTRLPLFRDWIKENTGV |
| 6.84 nM | MTSP-1 I41G/F97S/F99L/C122S/G151N/Q175L/Q192G/D217I (enzyme) VVGGTDADEGEWPWQVSLHALGQGHGCGASLISPNWLVSAAHCYIDDRGFRYSDPTQWTAFLGLHDQSQRSAPGVQERRLKRIISHPFFNDSTLDYDIALLELEKPAEYSSMVRPISLPDASHVFPAGKAIWVTGWGHTQYGGTNALILQKGEIRVINQTTCENLLPQLITPRMMCVGFLSGGVDSCGGDSGGPLSSVEADGRIFQAGVVSWGIGCAQRNKPGVYTRLPLFRDWIKENTGV |
| 7.75 nM | MTSP-1 I41G/F97L/F99L/C122S/Q175A/Q192T/D217V (enzyme) VVGGTDADEGEWPWQVSLHALGQGHGCGASLISPNWLVSAAHCYIDDRGFRYSDPTQWTAFLGLHDQSQRSAPGVQERRLKRIISHPFFNDLTLDYDIALLELEKPAEYSSMVRPISLPDASHVFPAGKAIWVTGWGHTQYGGTGALILQKGEIRVINQTTCENLLPQAITPRMMCVGFLSGGVDSCTGDSGGPLSSVEADGRIFQAGVVSWGVGCAQRNKPGVYTRLPLFRDWIKENTGV |
| 22 nM | MTSP-1 Q38H/I41S/D96K/F97G/ins97aV/T98P/F99L/C122S/Q175L/Q192D (enzyme) VVGGTDADEGEWPWQVSLHALGHGHSCGASLISPNWLVSAAHCYIDDRGFRYSDPTQWTAFLGLHDQSQRSAPGVQERRLKRIISHPFFNKGVPLDYDIALLELEKPAEYSSMVRPISLPDASHVFPAGKAIWVTGWGHTQYGGTGALILQKGEIRVINQTTCENLLPQLITPRMMCVGFLSGGVDSCDGDSGGPLSSVEADGRIFQAGVVSWGDGCAQRNKPGVYTRLPLFRDWIKENTGV |
